Earlier results in PMC4546937.

Target: IL-13Ralpha1 (Homo sapiens) (UniProt P78552)
Chain of UniProt P78552 (P78552 22-343): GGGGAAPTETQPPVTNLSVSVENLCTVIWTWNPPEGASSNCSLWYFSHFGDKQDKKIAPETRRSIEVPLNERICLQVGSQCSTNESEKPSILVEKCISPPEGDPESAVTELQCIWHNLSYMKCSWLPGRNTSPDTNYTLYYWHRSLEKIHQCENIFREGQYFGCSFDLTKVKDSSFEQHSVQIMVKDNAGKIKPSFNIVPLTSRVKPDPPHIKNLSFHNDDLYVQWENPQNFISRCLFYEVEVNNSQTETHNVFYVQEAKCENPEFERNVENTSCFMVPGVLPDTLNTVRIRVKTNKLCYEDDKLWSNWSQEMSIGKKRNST

Kd: 30 nM
Substance: IL-13 (from UniProt P35225)
